Measured values taken from US20200079844A1.
Where two headings read alike, the source gives them in different places.

Assays:
human TNFα (human) [1] = target: human TNFα (human) (UniProt P01375); test: cell-based or functional assay
rhesus TNFα (rhesus) [2] = target: rhesus TNFα (rhesus) (UniProt P48094)
rhesus TNFα (rhesus) [3] = target: rhesus TNFα (rhesus) (UniProt P48094); test: cell-based or functional assay
rhesus TNFα (rhesus) [4] = target: rhesus TNFα (rhesus) (UniProt P48094); remark: listed apart in the source
human TNFα (human) [5] = target: human TNFα (human) (UniProt P01375); test: cell-based or functional assay; remark: listed apart in the source

Sequence of human TNFα (human) (P01375 77-233 limits assumed): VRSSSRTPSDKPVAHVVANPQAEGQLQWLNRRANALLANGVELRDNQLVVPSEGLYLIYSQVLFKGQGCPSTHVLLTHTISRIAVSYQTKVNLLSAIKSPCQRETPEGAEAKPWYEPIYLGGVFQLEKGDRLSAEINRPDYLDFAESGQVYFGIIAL
Sequence of rhesus TNFα (rhesus) (P48094 77-233 limits assumed): as the sequence (P01375 77-233 limits assumed) above, with R44T, T72N, R138L counted along it

Substance	IC50 in pM; TNFα-induced IL-6 production by RA synovial fibroblasts, donor DS534 P4 (human TNFα (human) [1]) [pM]	IC50 in pM; TNFα-induced IL-6 production by RA synovial fibroblasts, donor DS592 P4 (human TNFα (human) [1]) [pM]	IC50 in pM; TNFα-induced IL-6 production by RA synovial fibroblasts, donor DS605 P3 (human TNFα (human) [1]) [pM]	IC50 in pM; TNFα-induced IL-6 production by RA synovial fibroblasts, donor KM05-179 P4 (human TNFα (human) [1]) [pM]	p[IC]50; TNFα-induced IL-6 production by RA synovial fibroblasts, donor DS534 P4 (human TNFα (human) [1])	p[IC]50; TNFα-induced IL-6 production by RA synovial fibroblasts, donor DS592 P4 (human TNFα (human) [1])	p[IC]50; TNFα-induced IL-6 production by RA synovial fibroblasts, donor DS605 P3 (human TNFα (human) [1])	p[IC]50; TNFα-induced IL-6 production by RA synovial fibroblasts, donor KM05-179 P4 (human TNFα (human) [1])	EC50 (read off the curve) (rhesus TNFα (rhesus) [2]) [pM]	EC50 in nM (mean); L929s + Act D cytotoxicity assay, human TNFa @ 0.5 ng/ml (human TNFα (human) [1]) [nM]	EC50 in nM (mean); L929s + Act D cytotoxicity assay, human TNFα @ 0.5 ng/ml (human TNFα (human) [1]) [nM]	EC50 in nM; alphaKYM cell assay (10000 c/w), human TNFa @ 1 ng/ml (human TNFα (human) [1]) [nM]	EC50 in nM (mean); L929s + Act D cytotoxicity assay, rhesus TNFa @ 0.5 ng/ml (rhesus TNFα (rhesus) [3]) [nM]	EC50 in nM (mean); L929s + Act D cytotoxicity assay, rhesus TNFα @ 0.5 ng/ml (rhesus TNFα (rhesus) [3]) [nM]	EC50 (read off the curve) (rhesus TNFα (rhesus) [4]) [pM]	EC50 in nM (mean); cytotoxicity assay, human TNFα (human TNFα (human) [1]) [nM]	EC50 in nM (mean); cytotoxicity assay, human TNFα (human TNFα (human) [5]) [nM]
ALX0071	132	363	427	537	9.88	9.44	9.37	9.27	–	–	–	–	–	–	–	–	–
Enbrel (Etanercept) (Fc fusion)	282	324	309	309	9.55	9.49	9.51	9.51	10	0.009	0.009	0.04	0.009	0.009	–	–	–
Humira (Adalimumab) (antibody)	–	–	–	–	–	–	–	–	90	–	–	0.103	0.071	0.071	100	0.141	0.127
Remicade (Infliximab) (antibody)	–	–	–	–	–	–	–	–	–	–	–	–	> 6.7	> 6.7	–	–	–
